For test [1], the target named is 3-Hydroxypropionyl-CoA dehydratase from Metallosphaera sedula (Metallosphaera sedula). In words: SEC; analytical, Superdex increase 200 10/300 GL, 40 mM Tris-HCl pH 8.0, 150 mM NaCl; 1 mL of 1 mg/mL protein; calibrated with ferritin, conalbumin, carbonic anhydrase, ribonuclease A. On the technique in general: SEC sorts molecules by how far they enter the pores of the column.

The target is the same in test [2]. The experiment in a line: crystal structure; Ms3HPCD in complex with CoA, 1.8 Å, space group P21, six monomers in the asymmetric unit; crystals from 10% PEG 8000, 0.1 M sodium-potassium phosphate pH 6.2, 0.2 M NaCl, 10 mM EDTA, 20 °C.
Test [3] addresses T1, 3-Hydroxypropionyl-CoA dehydratase (Ms3HPCD; 3HPCD; 3-HPCD) (Metallosphaera sedula, UniProt A4YI89).
T1 construct: gene Msed_2001; Met1-Lys256, C-terminal 6xHis tag (pET30a), expressed in E. coli BL21(DE3)-T1R; hexamer (dimer of trimers)
The experiment in a line: X-ray crystal structure, […] Å. To be noted: co-purified, CoA not added during expression or purification; substrate binding site between two monomers; crystals at pH 6.2, 20 °C.

T1 sequence (A4YI89 whole entry): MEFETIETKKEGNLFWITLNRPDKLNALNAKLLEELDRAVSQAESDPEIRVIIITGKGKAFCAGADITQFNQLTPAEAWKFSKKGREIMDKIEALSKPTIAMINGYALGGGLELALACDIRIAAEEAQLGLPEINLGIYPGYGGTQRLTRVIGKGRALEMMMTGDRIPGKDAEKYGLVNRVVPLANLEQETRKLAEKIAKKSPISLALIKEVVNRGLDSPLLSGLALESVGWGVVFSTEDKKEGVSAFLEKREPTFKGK

As usually defined, the stoichiometry N is a count of units in the complex or per binding partner. “3-Hydroxypropionyl-CoA dehydratase from Metallosphaera sedula (enzyme)”: the stoichiometry N in test [1] and in test [2] was 6 in each case.

As to `CC(C)(COP(=O)(O)OP(=O)(O)OC[C@H]1O[C@@H](n2cnc3c(N)ncnc32)[C@H](O)[C@@H]1OP(=O)(O)O)[C@@H](O)C(=O)NCCC(=O)NCCS` [CoA], the “X-ray crystal structure, 1.8 Å” value in test [3] was “In our current structure, the CoA molecule is tightly bound at the substrate binding site”.
